# Biological target: T1, ET [16-29] (Homo sapiens, UniProt P05305)
# T1 construct: made in house; host or cells: chemical solid-phase peptide synthesis (Fmoc)
# Assay: Capacity of affinity chromatography columns prepared with the immobilized peptides (retention of injected ET [16-29])
# Type: binding
# Conditions: 500 microlitres of ET [16-29] at 1 mg/ml injected; peptide immobilized on EUPERGIT C30 N; 0.1 M TRIS HCL pH 6.8, 1 ml/min
# Method: The peptides Δ ET [16-29] and 8 Δ ET [16-29] have immobilized on a support previously activated through the introduction of epoxide groups (EUPERGIT C30 N), employing the same peptide/support ratio. The peptides 8 Δ ET [16-29] (2 mg) and Δ ET [16-29] (2 mg) have been dissolved separately in 10 ml of 0.1 M […], 0.5 M NaCl, pH 8.5, and added separately to two aliquots of 1 g of EUPERGIT C30 N. The mixtures have been incubated for 24 hours under stirring at room temperature. The introduction of the peptides within the resin has been followed by means of RP-HPLC, and after 24 hours an amount of about 80 % of the peptide initially present in the two preparations turned out to be covalently linked to the support. Such incorporation percentage has been then confirmed by analysis of amino acids, which analysis were carried out on weighed amounts of the two derivatized resins.
# The two derivatized peptide supports were employed for filling two glass columns for affinity chromatography (80 x 6.6 mm I.D., total volume 2.3 ml) that were equilibrated with 0.1 M TRIS* HCL, at pH 6.8 and with a flowrate of 1 ml/min. The eluent was continuously monitored by means of optical absorption determinations at 280 nm wavelength. For determining the capacity of the columns, 500 microlitres of ET [16-29] dissolved at a concentration of 1 mg/ml in the elution buffer were injected. […]
sequence,measurement,value
RKFLAGLRARRLKF [Δ ET [16-29]],injected material retained by the column,50%
